Measurements as given in US20200010571A1 (Janssen / Centocor, published 2020).
Several values for one entry are separate records, joined by “and”; a condition that tells them apart may be missing. Identical values can stand only once.

What was measured:
[1] = target: T1, rhTNF-α (recombinant human, soluble) (human, UniProt P01375 77-233); test: cell-based or functional assay
[2] = target: T1, rhTNF-α (recombinant human, soluble); test: cell-based or functional assay; remark: listed apart in the source
[3] = target: T1, rhTNF-α (recombinant human, soluble); test: cell-based or functional assay; remark: listed apart in the source
[4] = target: protease-resistant form of human transmembrane TNF-α (lacks amino acids Val1 to Pro12) overexpressed by K2 … (human, UniProt P01375 1-233); test: cell-based or functional assay
[5] = target: native (endogenous) human TNF-α (human, UniProt P01375 77-233); test: cell-based or functional assay
cynomolgus TNF-α [6] = target: T2, cynomolgus TNF-α (cynomolgus, UniProt P79337 77-233); test: cell-based or functional assay
[7] = target: T3, human IL-17A (recombinant) (human, UniProt Q16552 24-155); test: cell-based or functional assay
[8] = target: T3, human IL-17A (recombinant); test: cell-based or functional assay; remark: listed apart in the source
[9] = target: T4, recombinant human IL-17A/F heterodimer (human, UniProt Q16552 24-155; Q96PD4 31-163); test: cell-based or functional assay
[10] = target: T4, recombinant human IL-17A/F heterodimer; test: cell-based or functional assay; remark: listed apart in the source
cynomolgus IL-17A [11] = target: T5, cynomolgus IL-17A (cynomolgus, UniProt Q16552 24-155 (human entry), limits assumed); test: cell-based or functional assay
T5 chain: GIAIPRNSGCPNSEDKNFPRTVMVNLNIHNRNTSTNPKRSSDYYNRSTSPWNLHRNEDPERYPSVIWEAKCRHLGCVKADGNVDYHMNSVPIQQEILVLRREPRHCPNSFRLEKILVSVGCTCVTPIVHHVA

cynomolgus IL-17A [12] = target: T5, cynomolgus IL-17A; test: cell-based or functional assay
recombinant human IL-17F = target: T6, recombinant human IL-17F (human, UniProt Q96PD4 31-163); test: binding to rhIL-17A in the absence or presence of IL-17F
T6 sequence: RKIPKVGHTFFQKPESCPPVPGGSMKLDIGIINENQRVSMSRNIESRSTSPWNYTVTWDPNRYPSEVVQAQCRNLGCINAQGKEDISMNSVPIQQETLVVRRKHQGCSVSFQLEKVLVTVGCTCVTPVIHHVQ

mouse TNF-α = target: T7, mouse TNF-α (mouse, UniProt P06804 80-235); test: SPR (Biacore 3000), mAb captured by anti-IgG Fc, antigen in solution
T7 sequence: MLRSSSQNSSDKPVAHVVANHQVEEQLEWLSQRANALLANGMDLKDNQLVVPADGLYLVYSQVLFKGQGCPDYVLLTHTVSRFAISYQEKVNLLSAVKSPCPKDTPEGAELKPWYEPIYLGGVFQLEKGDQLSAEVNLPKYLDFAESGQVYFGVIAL

rat TNF-α = target: T8, rat TNF-α (rat, UniProt P16599 80-235); test: as above
T8 sequence: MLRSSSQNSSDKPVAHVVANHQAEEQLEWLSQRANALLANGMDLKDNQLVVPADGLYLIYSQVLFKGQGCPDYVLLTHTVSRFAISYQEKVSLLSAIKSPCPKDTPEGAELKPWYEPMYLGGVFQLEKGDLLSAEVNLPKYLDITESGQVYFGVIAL

[13] = target: T3, human IL-17A (recombinant); test: competition ELISA: biotinylated rhIL-17A binding to plate-coated rhIL-17RA-Fc
cynomolgus TNF-α [14] = target: T2, cynomolgus TNF-α; test: SPR (Biacore 3000), mAb captured by anti-IgG Fc, antigen in solution, 1:1 Langmuir
cynomolgus IL-17A [15] = target: T5, cynomolgus IL-17A; test: as above
mouse IL-17A = target: T9, mouse IL-17A (mouse, UniProt Q62386 26-158); test: as above
T9 sequence: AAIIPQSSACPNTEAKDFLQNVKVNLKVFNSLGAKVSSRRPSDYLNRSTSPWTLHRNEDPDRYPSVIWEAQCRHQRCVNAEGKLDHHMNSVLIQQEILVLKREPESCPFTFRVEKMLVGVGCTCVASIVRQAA

rat IL-17A = target: T10, rat IL-17A (rat, UniProt Q61453 18-150); test: as above
T10 chain: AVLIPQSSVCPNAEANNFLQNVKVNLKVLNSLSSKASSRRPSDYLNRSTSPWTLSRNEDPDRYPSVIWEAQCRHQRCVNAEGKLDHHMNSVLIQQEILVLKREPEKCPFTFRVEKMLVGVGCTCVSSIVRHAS

[16] = target: T1, rhTNF-α (recombinant human, soluble); test: SPR (Biacore 3000), mAb captured by anti-IgG Fc, antigen in solution, 25 C, 1:1 Langmuir
[17] = target: T3, human IL-17A (recombinant); test: as above
[18] = target: T3, human IL-17A (recombinant); test: competition ELISA: biotinylated rhIL-17A binding to plate-coated rhIL-17RA-Fc; Experiment 1; 95% CI 0.1171-0.1378
[19] = target: T3, human IL-17A (recombinant); test: competition ELISA: biotinylated rhIL-17A binding to plate-coated rhIL-17RA-Fc; Experiment 2; 95% CI 0.1639-0.1853
[20] = target: T3, human IL-17A (recombinant); test: competition ELISA: biotinylated rhIL-17A binding to plate-coated rhIL-17RA-Fc; Experiment 3; 95% CI 0.2415-0.2667

B1: mAb 8759 (bispecific anti-TNF-α/IL-17A antibody, IgG1, YTE) (bispecific antibody)
heavy 1: not shown
light 1: not shown
heavy 2: QVQLLESGGGLVQPGGSLRLSCAASGFTFSSYAMSWVRQAPGKGLEWVSTISLTSGFTYYADSVKGRFTISRDNSKNTLYLQMNSLRAEDTAVYYCARQLTLDVWGQGTLVTVSSASTKGPSVFPLAPSSKSTSGGTAALGCLVKDYFPEPVTVSWNSGALTSGVHTFPAVLQSSGLYSLSSVVTVPSSSLGTQTYICNVNHKPSNTKVDKKVEPKSCDKTHTCPPCPAPELLGGPSVFLFPPKPKDTLYITREPEVTCVVVDVSHEDPEVKFNWYVDGVEVHNAKTKPREEQYNSTYRVVSVLTVLHQDWLNGKEYKCKVSNKALPAPIEKTISKAKGQPREPQVYTLPPSREEMTKNQVSLTCLVKGFYPSDIAVEWESNGQPENNYKTTPPVLDSDGSFLLYSKLTVDKSRWQQGNVFSCSVMHEALHNHYTQKSLSLSPGK
light 2: QSVLTQPPSVSVAPGQTARISCSGDNLGDKYANWYQQKPGQAPVLVIYDDIDRPSGIPERFSGSNSGNTATLTISGTQAEDEADYYCGSYDFFLGMIVFGGGTKLTVLGQPKAAPSVTLFPPSSEELQANKATLVCLISDFYPGAVTVAWKADSSPVKAGVETTTPSKQSNNKYAASSYLSLTPEQWKSHRSYSCQVTHEGSTVEKTVAPTECS
fold of IC50 against the parental anti-TNF-α antibodies mAb 9809 and mAb 6696; rhTNF-α-induced cytotoxicity in WEHI-164 cells [1]: ~3 fold
IC50 (nM); WEHI-164 cells cytotoxicity mediated by soluble rhTNF-α; Experiment 1 [2]: 1.2 nM
IC50 (nM); WEHI-164 cells cytotoxicity mediated by soluble rhTNF-α; Experiment 2 [2]: 1.73 nM
IC50 (nM); WEHI-164 cells cytotoxicity mediated by soluble rhTNF-α; Experiment 3 [2]: 0.478 nM
IC50 (nM); KYM-1D4 cells, cytotoxicity mediated by soluble rhTNF-α; Experiment 1 [3]: 0.13 nM
IC50 (nM); KYM-1D4 cells, cytotoxicity mediated by soluble rhTNF-α; Experiment 2 [3]: 0.261 nM
IC50 (nM); KYM-1D4 cells, cytotoxicity mediated by soluble rhTNF-α; Experiment 3 [3]: 0.147 nM
IC50 (nM); KYM-1D4 cells, cytotoxicity mediated by membrane bound human TNF-α; Experiment 1 [4]: 0.653 nM
IC50 (nM); KYM-1D4 cells, cytotoxicity mediated by membrane bound human TNF-α; Experiment 2 [4]: 0.883 nM
IC50 (nM); KYM-1D4 cells, cytotoxicity mediated by membrane bound human TNF-α; Experiment 3 [4]: 0.3 nM
IC50 (nM); KYM-1D4 cells, cytotoxicity mediated by endogenous soluble TNF-α; Experiment 1 [5]: 0.283 nM
IC50 (nM); KYM-1D4 cells, cytotoxicity mediated by endogenous soluble TNF-α; Experiment 2 [5]: 0.294 nM
IC50 (nM); KYM-1D4 cells, cytotoxicity mediated by endogenous soluble TNF-α; Experiment 3 [5]: 0.143 nM
IC50 (nM); Inhibition of cyno TNF-α mediated cytotoxicity in WEHI-164 cells; Experiment 1 (cynomolgus TNF-α [6]): 3.82 nM
IC50 (nM); Inhibition of cyno TNF-α mediated cytotoxicity in WEHI-164 cells; Experiment 2 (cynomolgus TNF-α [6]): 14.9 nM
IC50 (nM); Inhibition of cyno TNF-α mediated cytotoxicity in WEHI-164 cells; Experiment 3 (cynomolgus TNF-α [6]): 7.32 nM
IC50 (µg/mL); Inhibition of native IL-17A mediated GROα production by NHDF; Experiment 1 [7]: 0.0755 µg/mL
IC50 (µg/mL); Inhibition of native IL-17A mediated GROα production by NHDF; Experiment 2 [7]: 0.0692 µg/mL
IC50 (µg/mL); Inhibition of native IL-17A mediated GROα production by NHDF; Experiment 3 [7]: 0.0653 µg/mL
IC50 (µg/mL); Inhibition of native IL-17A mediated IL-6 production by NHDF; Experiment 1 [8]: 0.0478 µg/mL
IC50 (µg/mL); Inhibition of native IL-17A mediated IL-6 production by NHDF; Experiment 2 [8]: 0.038 µg/mL
IC50 (µg/mL); Inhibition of native IL-17A mediated IL-6 production by NHDF; Experiment 3 [8]: 0.0608 µg/mL
IC50 (µg/mL); Inhibition of IL-17A/F mediated GROα production by NHDF; Experiment 1 [9]: 0.283 µg/mL
IC50 (µg/mL); Inhibition of IL-17A/F mediated GROα production by NHDF; Experiment 2 [9]: 0.46 µg/mL
IC50 (µg/mL); Inhibition of IL-17A/F mediated GROα production by NHDF; Experiment 3 [9]: 0.435 µg/mL
IC50 (µg/mL); Inhibition of IL-17A/F mediated IL-6 production by NHDF; Experiment 1 [10]: 0.117 µg/mL
IC50 (µg/mL); Inhibition of IL-17A/F mediated IL-6 production by NHDF; Experiment 2 [10]: 0.133 µg/mL
IC50 (µg/mL); Inhibition of IL-17A/F mediated IL-6 production by NHDF; Experiment 3 [10]: 0.102 µg/mL
IC50 (µg/mL); Inhibition of cyno IL-17A mediated GROα production by NHDF; Experiment 3 (cynomolgus IL-17A [11]): 0.142 µg/mL
IC50 (µg/mL); Inhibition of cyno IL-17A mediated IL-6 production by NHDF; Experiment 3 (cynomolgus IL-17A [12]): 0.0476 µg/mL
binding result (recombinant human IL-17F): no binding
binding result (mouse TNF-α): no binding (tested: up to 100 nM)
binding result (rat TNF-α): no binding (tested: up to 100 nM)
fold IC50 against the parental anti-IL-17A antibodies mAb 4782 and mAb 7206 [13]: ~3 fold
Kd (cynomolgus TNF-α [14]): 0.44 nM and 0.16 nM
koff (cynomolgus TNF-α [14]): 0.000114 s⁻¹
kon (cynomolgus TNF-α [14]): 259000 M⁻¹ s⁻¹ and 710000 M⁻¹ s⁻¹
Kd (cynomolgus IL-17A [15]): 0.0265 nM and 0.0277 nM
koff (cynomolgus IL-17A [15]): 3.59e-05 s⁻¹ and 4.4e-05 s⁻¹
kon (cynomolgus IL-17A [15]): 1.35e+06 M⁻¹ s⁻¹ and 1.59e+06 M⁻¹ s⁻¹
Kd (mouse IL-17A): 1.01 nM
koff (mouse IL-17A): 0.00101 s⁻¹
kon (mouse IL-17A): 999000 M⁻¹ s⁻¹
Kd (rat IL-17A): 13.9 nM
koff (rat IL-17A): 0.00274 s⁻¹
kon (rat IL-17A): 197000 M⁻¹ s⁻¹
Kd [16]: 0.0232 nM and 0.0192 nM
koff [16]: 4.07e-05 s⁻¹ and 3.76e-05 s⁻¹
kon [16]: 1.75e+06 M⁻¹ s⁻¹ and 1.96e+06 M⁻¹ s⁻¹
Kd [17]: 0.0244 nM and 0.0389 nM
koff [17]: 4.36e-05 s⁻¹ and 3.74e-05 s⁻¹
kon [17]: 1.78e+06 M⁻¹ s⁻¹ and 961000 M⁻¹ s⁻¹
IC50 [18]: 0.127 µg/mL
IC50 [19]: 0.174 µg/mL
IC50 [20]: 0.254 µg/mL
